Source: the Immune Epitope Database (IEDB)
Each block holds one sequence with its values, some of them ahead of it.

Key:
HLA-A*02:50 = assay: IEDB peptide-MHC binding, purified MHC/competitive/fluorescence; filed as Kd, often an IC50 or EC50 that approximates it; ≥ and ≤ were set here for values at or beyond the usual limits of such assays
HLA-A*69:01 [1] = assay: IEDB peptide-MHC binding, purified MHC/direct/fluorescence; filed as Kd, often an IC50 or EC50 that approximates it; ≥ and ≤ were set here for values at or beyond the usual limits of such assays
HLA-A*02:11 [2] = assay: as above; conditions: source organism: Yersinia enterocolitica subsp. enterocolitica 8081
HLA-A*02:01 [3] = assay: as above
HLA-A*69:01 [4] = assay: IEDB peptide-MHC binding, purified MHC/competitive/fluorescence; filed as Kd, often an IC50 or EC50 that approximates it; ≥ and ≤ were set here for values at or beyond the usual limits of such assays
HLA-B*46:01 = assay: as above
HLA-B*15:01 [5] = assay: as above
HLA-B*27:03 = assay: as above
HLA-A*26:01 [6] = assay: as above
HLA-A*23:01 = assay: as above
HLA-B*57:01 = assay: as above
HLA-A*02:19 = assay: as above
HLA-A*24:03 = assay: as above
HLA-A*68:02 = assay: as above
HLA-A*29:02 = assay: as above
HLA-B*18:01 = assay: as above
HLA-A*02:16 = assay: as above
HLA-A*03:01 [7] = assay: as above
HLA-B*51:01 = assay: as above
HLA-B*15:17 = assay: as above
HLA-A*02:01 [8] = assay: as above
HLA-B*07:02 [9] = assay: as above
HLA-B*08:01 [10] = assay: as above
HLA-B*58:01 [11] = assay: as above; conditions: source organism: Escherichia coli
HLA-A*02:12 = assay: as above
HLA-A*02:03 = assay: as above; conditions: source organism: Burkholderia mallei SAVP1
HLA-B*39:01 = assay: as above
HLA-A*02:11 [12] = assay: as above; conditions: source organism: Burkholderia mallei SAVP1
HLA-A*31:01 [13] = assay: as above; conditions: source organism: Burkholderia mallei SAVP1
HLA-B*15:01 [14] = assay: IEDB peptide-MHC binding, purified MHC/direct/fluorescence; filed as Kd, often an IC50 or EC50 that approximates it; ≥ and ≤ were set here for values at or beyond the usual limits of such assays; conditions: source organism: Escherichia coli
HLA-B*27:05 = assay: as above; conditions: source organism: Escherichia coli 536
HLA-B*07:02 [15] = assay: as above; conditions: source organism: Escherichia coli 536
HLA-B*40:01 = assay: as above; conditions: source organism: Escherichia coli 536
HLA-A*26:01 [16] = assay: as above; conditions: source organism: Escherichia coli 536
HLA-B*08:01 [17] = assay: as above; conditions: source organism: Escherichia coli 536
HLA-B*58:01 [18] = assay: as above; conditions: source organism: Escherichia coli 536
HLA-A*11:01 = assay: as above; conditions: source organism: Escherichia coli 536
HLA-A*01:01 = assay: as above; conditions: source organism: Escherichia coli 536
HLA-A*03:01 [19] = assay: as above; conditions: source organism: Escherichia coli
HLA-A*31:01 [20] = assay: as above; conditions: source organism: Escherichia coli 536
[21] = source organism: Yersinia pestis
[22] = source organism: Bacillus anthracis str. A0488
[23] = source organism: Salmonella enterica subsp. enterica serovar Paratyphi B str. SPB7
[24] = source organism: Escherichia coli
[25] = source organism: Burkholderia mallei SAVP1
[26] = source organism: Giardia lamblia ATCC 50803

Sequence: FLRFGDFKL
Kd (HLA-A*02:50; source organism: Yersinia pestis Nepal516): ≤ 0.0001 µM
Kd (HLA-A*69:01 [1]; [21]): 18.3 µM
Kd (HLA-A*02:11 [2]): 0.104 µM
Kd (HLA-A*02:01 [3]; [21]): 0.0055 µM

Sequence: KQGDVFYTA
Kd (HLA-A*69:01 [4]; [22]): ≥ 20 µM
Kd (HLA-B*46:01; [22]): ≥ 20 µM
Kd (HLA-B*15:01 [5]; [22]): ≥ 20 µM
Kd (HLA-B*27:03; [22]): ≥ 20 µM
Kd (HLA-A*26:01 [6]; [22]): ≥ 20 µM
Kd (HLA-A*23:01; [22]): ≥ 20 µM
Kd (HLA-B*57:01; [22]): ≥ 20 µM
Kd (HLA-A*02:19; [22]): ≥ 20 µM
Kd (HLA-A*24:03; [22]): ≥ 20 µM
Kd (HLA-A*68:02; [22]): ≥ 20 µM
Kd (HLA-A*29:02; [22]): ≥ 20 µM
Kd (HLA-B*18:01; [22]): ≥ 20 µM
Kd (HLA-A*02:16; [22]): 0.0514 µM
Kd (HLA-A*03:01 [7]; [22]): ≥ 20 µM
Kd (HLA-B*51:01; [22]): ≥ 20 µM
Kd (HLA-B*15:17; [22]): ≥ 20 µM
Kd (HLA-A*02:01 [8]; [22]): ≥ 20 µM

Sequence: LPLAKPMVI
Kd (HLA-B*15:01 [5]; [23]): ≥ 20 µM
Kd (HLA-B*07:02 [9]; [23]): 0.0624 µM
Kd (HLA-B*08:01 [10]; [23]): 0.211 µM
Kd (HLA-B*51:01; [23]): 0.626 µM

Kd (HLA-B*07:02 [9]; [24]): 0.012 µM
Kd (HLA-B*08:01 [10]; [24]): ≥ 20 µM
Kd (HLA-B*58:01 [11]): 0.0293 µM
Sequence: RAAPLMQSL

Sequence: RFNAIWFNH
Kd (HLA-A*69:01 [4]; [25]): ≥ 20 µM
Kd (HLA-B*46:01; [25]): ≥ 20 µM
Kd (HLA-B*15:01 [5]; [25]): ≥ 20 µM
Kd (HLA-B*27:03; [25]): ≥ 20 µM
Kd (HLA-A*02:12; [25]): ≥ 20 µM
Kd (HLA-A*26:01 [6]; [25]): ≥ 20 µM
Kd (HLA-A*23:01; [25]): ≥ 20 µM
Kd (HLA-B*57:01; [25]): ≥ 20 µM
Kd (HLA-A*02:19; [25]): ≥ 20 µM
Kd (HLA-A*02:03): ≥ 20 µM
Kd (HLA-A*24:03; [25]): ≥ 20 µM
Kd (HLA-A*68:02; [25]): ≥ 20 µM
Kd (HLA-A*29:02; [25]): ≥ 20 µM
Kd (HLA-B*18:01; [25]): ≥ 20 µM
Kd (HLA-B*39:01; [25]): ≥ 20 µM
Kd (HLA-A*02:16; [25]): ≥ 20 µM
Kd (HLA-A*02:11 [12]): ≥ 20 µM
Kd (HLA-A*03:01 [7]; [25]): ≥ 20 µM
Kd (HLA-B*51:01; [25]): ≥ 20 µM
Kd (HLA-B*15:17; [25]): ≥ 20 µM
Kd (HLA-A*31:01 [13]): 0.0041 µM
Kd (HLA-A*02:01 [8]; [25]): ≥ 20 µM

Kd (HLA-A*02:50; [24]): 0.0184 µM
Kd (HLA-A*69:01 [1]; source organism: Escherichia coli 536): ≥ 20 µM
Kd (HLA-B*15:01 [14]): 0.455 µM
Kd (HLA-B*27:05): ≥ 20 µM
Kd (HLA-B*07:02 [15]): ≥ 20 µM
Kd (HLA-B*40:01): ≥ 20 µM
Kd (HLA-A*26:01 [16]): ≥ 20 µM
Kd (HLA-B*08:01 [17]): ≥ 20 µM
Kd (HLA-B*58:01 [18]): ≥ 20 µM
Kd (HLA-A*11:01): ≥ 20 µM
Kd (HLA-A*01:01): ≥ 20 µM
Kd (HLA-A*03:01 [19]): 0.799 µM
Kd (HLA-A*31:01 [20]): ≥ 20 µM
Kd (HLA-A*02:01 [3]; [24]): 0.507 µM
Sequence: RMYGISPWT

Sequence: STTTCEAGV
Kd (HLA-B*46:01; [26]): ≥ 20 µM
Kd (HLA-B*15:01 [5]; [26]): ≥ 20 µM
Kd (HLA-B*27:03; [26]): ≥ 20 µM
Kd (HLA-A*02:12; [26]): 0.284 µM
Kd (HLA-A*26:01 [6]; [26]): ≥ 20 µM
Kd (HLA-A*23:01; [26]): ≥ 20 µM
Kd (HLA-B*57:01; [26]): ≥ 20 µM
Kd (HLA-A*02:19; [26]): ≥ 20 µM
Kd (HLA-A*24:03; [26]): ≥ 20 µM
Kd (HLA-A*29:02; [26]): ≥ 20 µM
Kd (HLA-B*18:01; [26]): ≥ 20 µM
Kd (HLA-B*39:01; [26]): ≥ 20 µM
Kd (HLA-A*03:01 [7]; [26]): ≥ 20 µM
Kd (HLA-B*51:01; [26]): ≥ 20 µM
Kd (HLA-A*02:01 [8]; [26]): ≥ 20 µM
